Residue numbers refer to the chain shown, from its start. Blank lines part the entries; values can stand above or below the binder they belong to. Primed or numbered codes have the meaning given here. Biotin′ = not defined here
Experiments:
[1] = target: T1, LRRC25(96-115) biotin peptide (human, not fully specified; N-terminal acetyl; C-terminal GGK-Biotin; native Cys changed to Ser); experiment: peptide ELISA
T1 construct: also called Biotin LRRC25 (96-115) peptide
T1 peptide: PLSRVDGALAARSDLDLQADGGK
Experimental: (§1) To establish if functional chimera anti-LRRC25 antibodies recognize particular regions of LRRC25, ELISA experiments were performed using 10 plate-immobilized 16- to 20-mer overlapping LRRC25(ECD) biotin peptides (Table 7). Biotinylated human LRRC25-His served as a positive control. A typical ELISA was performed by coating overnight at 4° C., 3 ug/mL/25 ul per well of streptavidin (Jackson Immunoresearch, Cat. #016-030-084) in PBS in half-area high binding microtiter wells (Corning Cat. #3690). […] Biotin peptides or biotinylated human LRRC25-His protein were added in duplicate (2 ug/mL/25 ul per well) in assay buffer (blocking buffer containing 0.05% tween 20) and the plate incubated for 45 min at 37° C. The plate was washed as before, 20 nM anti-LRRC25 antibodies in assay buffer added in duplicate into appropriate wells, and the plate incubated as before. The plate was washed and HRP-conjugated secondary antibody in assay buffer added [25 ul per well; goat anti-human IgG (Jackson Immunoresearch, Cat. #715-035-150)], and incubated as before. Antibody bound to plate-immobilized peptide(s) or protein was determined at A450 nm using HRP substrate (3,3′,5,5′-tetramethylbenzidine (TMB); eBioscience; Cat. #00-4201-56); 100 μl/well).

[2] = target: T2, LRRC25(81-100) biotin peptide (human, not fully specified; N-terminal acetyl; C-terminal GGK-Biotin); experiment: peptide ELISA
T2 peptide: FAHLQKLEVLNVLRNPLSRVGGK
Experimental: as §1

[3] = target: T3, LRRC25(111-130) biotin peptide (human, not fully specified; N-terminal acetyl; C-terminal GGK-Biotin; native Cys changed to Ser); experiment: peptide ELISA
T3 peptide: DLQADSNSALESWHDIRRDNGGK
Experimental: as §1

[4] = target: T4, LRRC25(150-165) biotin peptide (human); experiment: peptide ELISA
T4 peptide: Ac-SAFLEVSSAPGLASATGG-{Biotin′}
Experimental: as §1

[5] = target: T5, LRRC25(21-40) biotin peptide (human, not fully specified; N-terminal NH2; C-terminal GGK-Biotin; native Cys changed to Ser); experiment: peptide ELISA
T5 peptide: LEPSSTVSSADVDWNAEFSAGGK
Experimental: as §1

[6] = target: T6, LRRC25(51-69) biotin peptide (human, not fully specified; N-terminal acetyl; C-terminal GGK-Biotin); experiment: peptide ELISA
T6 peptide: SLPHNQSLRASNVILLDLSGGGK
Experimental: as §1

[7] = target: T7, LRRC25(141-159) biotin peptide (human, not fully specified; N-terminal acetyl; C-terminal GGK-Biotin; native Cys changed to Ser); experiment: peptide ELISA
T7 peptide: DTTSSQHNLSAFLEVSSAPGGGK
Experimental: as §1

[8] = target: T8, LRRC25(126-145) biotin peptide (human, not fully specified; N-terminal acetyl; C-terminal GGK-Biotin; native Cys changed to Ser); experiment: peptide ELISA
T8 peptide: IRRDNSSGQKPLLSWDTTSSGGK
Experimental: as §1

[9] = target: T9, LRRC25(36-55) biotin peptide (human, not fully specified; N-terminal NH2; C-terminal GGK-Biotin; native Cys changed to Ser); experiment: peptide ELISA
T9 peptide: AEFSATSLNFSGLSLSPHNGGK
Experimental: as §1

[10] = target: T10, LRRC25(66-85) biotin peptide (human, not fully specified; N-terminal acetyl; C-terminal GGK-Biotin); experiment: peptide ELISA
T10 peptide: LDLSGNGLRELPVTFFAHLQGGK
Experimental: as §1

[11] = target: T11, biotinylated human LRRC25-His protein (human, UniProt Q8N386 21-165, biotinylated (sites not given)); experiment: ELISA, 20 nM antibody, biotinylated antigen on streptavidin plate
T11 construct: also called Biotin LRRC25-His; biotinylated LRRC25 protein
T11 sequence (Q8N386 other isoform, or with tags, fused parts or gaps): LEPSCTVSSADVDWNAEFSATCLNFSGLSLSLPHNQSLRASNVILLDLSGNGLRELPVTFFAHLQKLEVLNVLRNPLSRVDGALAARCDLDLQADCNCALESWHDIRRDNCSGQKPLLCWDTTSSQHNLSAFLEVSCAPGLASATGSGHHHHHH
Experimental: as §1

[12] = target: T1, LRRC25(96-115) biotin peptide; experiment: as above
Experimental: as §1

[13] = target: T12, His-tagged cynomolgus monkey LRRC25 extracellular domain protein, cyno LRRC25-His (cynomolgus monkey); experiment: ELISA, plate-immobilized cyno LRRC25-His
T12 construct: The entry holds the extracellular domain, a GSG linker and the His tag
T12 sequence (chain, as listed by the source limits assumed): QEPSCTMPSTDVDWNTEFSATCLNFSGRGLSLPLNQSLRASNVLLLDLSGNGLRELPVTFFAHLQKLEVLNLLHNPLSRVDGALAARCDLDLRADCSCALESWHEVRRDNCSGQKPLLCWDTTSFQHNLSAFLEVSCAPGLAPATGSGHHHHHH
Experimental: (§2) A typical ELISA was performed by coating overnight in PBS, pH 7.4, at 4° C. in high binding microtiter wells with 1 ug/mL/100 ul per well of human LRRC25-His or cyno LRRC25-His. An anti-human LRRC25 antibody (2A3, LS Bio, LS-C174039-100) and anti-HIS-HRP (Miltenyi Biotec; 130-092-783) served as coating controls for the human and cyno LRRC25 proteins, respectively. […] Anti-LRRC25 antibodies were added (100 ul per well) at 500 nM and serially diluted 3-fold in assay buffer (1% skimmed milk in PBS, pH 7.4). The plate was incubated with gentle agitation for 1 h at room temperature. The plate was washed 3× and HRP-conjugated secondary antibody in assay buffer added [100 ul per well; goat anti-human IgG (Jackson Immunoresearch, cat #715-035-150)], and the plate was incubated as before. Antibody bound to plate-immobilized LRRC25(ECD)-HIS was determined at A450 nm using HRP substrate (3,3′,5,5′-tetramethylbenzidine (TMB); eBioscience; 00-4201-56); 100 μl/well).

[14] = target: T13, His-tagged human LRRC25 extracellular domain protein, human LRRC25-His (human, UniProt Q8N386 21-165); experiment: ELISA, plate-immobilized antigen
T13 construct: The entry holds the extracellular domain, a GSG linker and the His tag; also called LRRC25(ECD)-HIS
T13 sequence (Q8N386 other isoform, or with tags, fused parts or gaps): as the sequence (Q8N386 other isoform, or with tags, fused parts or gaps) above
Experimental: To establish the relative binding strengths of anti-LRRC25 antibodies against human LRRC25, and their cross-reactivity with cynomolgus monkey LRRC25, antibody binding curve analyses were performed and EC50 values against plate-immobilized recombinant human and cyno LRRC25 proteins were determined.
as §2

B1: anti-LRRC25 chimeric antibody 1G08 (antibody, human IgG4, V domains shown)
VH: DVQLVESGGGLVKPGGSLKLSCAASGFTFSNYAMSWVRQTPEKRLEWVASISRGGNTYYPDSVKGRFTISRDNARNILYLQMSSLRSEDTAIYYCTRGNYGSSPFAYWGQGTLVTVSA
VL: DIVLTQSPASLAVSLGQRATISCRASESVDSYGNSFMHWYQQKPGQPPKLLIYLASNLESGVPARFSGSGSRTDFTLTIDPVEADDAATYYCQQNNEDPWTFGGGTKLEIKR
- binding result [1]: no binding (tested: 20 nM)
- binding result [2]: no binding (tested: 20 nM)
- binding result [3]: no binding (tested: 20 nM)
- binding result [4]: no binding (tested: 20 nM)
- binding result [5]: no binding (tested: 20 nM)
- binding result [6]: no binding (tested: 20 nM)
- binding result [7]: no binding (tested: 20 nM)
- binding result [8]: no binding (tested: 20 nM)
- binding result [9]: no binding (tested: 20 nM)
- binding result [10]: no binding (tested: 20 nM)
- absorbance (A450) [11]: 0.324 A450
- absorbance (A450) [12]: 0.099 A450
- binding result [13]: no binding (tested: 500 nM)
- EC50 [14]: 3.2 nM

B3: anti-LRRC25 chimeric antibody 3E01 (antibody, human IgG4, V domains shown)
VH: EEKLEESGGGLVKPGGSLKLSCAVSGFTLSSYAMSWVRQTPEKRLEWVASISRGGNTYYPDSVKGRFTISRDNGRNILNLQMSSLRSEDTAIYYCTRGGGSTMITSLFAYWGQGTLVTVSA
VL: DIVMTQAAFSNPVTLGTSASIFCRSSKSLLHSNGITYLYWYLQKPGQSPQLLIYQMSNLASGVPDRFSSSGSGTDFTLRISRVEAEDVGVYYCAQNLELPYTFGGGTKLEIKR
- binding result [1]: no binding (tested: 20 nM)
- binding result [2]: no binding (tested: 20 nM)
- binding result [3]: no binding (tested: 20 nM)
- binding result [4]: no binding (tested: 20 nM)
- binding result [5]: no binding (tested: 20 nM)
- binding result [6]: no binding (tested: 20 nM)
- binding result [7]: no binding (tested: 20 nM)
- binding result [8]: no binding (tested: 20 nM)
- binding result [9]: no binding (tested: 20 nM)
- binding result [10]: no binding (tested: 20 nM)
- absorbance (A450) [11]: 0.341 A450
- absorbance (A450) [12]: 0.11 A450
- binding result [13]: no binding (tested: 500 nM)
- EC50 [14]: 45.1 nM

B5: anti-LRRC25 chimeric antibody 3F04 (antibody, human IgG4)
heavy: DVQLVESGGGLVKPGGSLKLSCAVSGFTLSSYAMSWVRQTPEKRLEWVASISRGGSTYYPDSVKGRFTISRDNGRNILNLQMSSLRSEDTAIYYCARGGGSTMITSLFAYWGQGTLVTVSAASTKGPSVFPLAPCSRSTSESTAALGCLVKDYFPEPVTVSWNSGALTSGVHTFPAVLQSSGLYSLSSVVTVPSSSLGTKTYTCNVDHKPSNTKVDKRVESKYGPPCPPCPAPEFLGGPSVFLFPPKPKDTLMISRTPEVTCVVVDVSQEDPEVQFNWYVDGVEVHNAKTKPREEQFNSTYRWSVLTVLHQDWLNGKEYKCKVSNKGLPSSIEKTISKAKGQPREPQVYTLPPSQEEMTKNQVSLTCLVKGFYPSDIAVEWESNGQPENNYKTTPPVLDSDGSFFLYSRLTVDKSRWQEGNVFSCSVMHEALHNHYTQKSLSLSLGK
light: DIVMTQDAFSNPVTLGTSASISCRSSKSLLHSNGITYLYWYLQKPGQSPQLLIYQMSNLASGVPDRFSSSGSGTDFTLRISRVEAEDVGVYYCAQNLELPFTFGSGTKLEIKRTVAAPSVFIFPPSDEQLKSGTASVVCLLNNFYPREAKVQWKVDNALQSGNSQESVTEQDSKDSTYSLSSTLTLSKADYEKHKVYACEVTHQGLSSPVTKSFNRGEC
- binding result [1]: no binding (tested: 20 nM)
- binding result [2]: no binding (tested: 20 nM)
- binding result [3]: no binding (tested: 20 nM)
- binding result [4]: no binding (tested: 20 nM)
- binding result [5]: no binding (tested: 20 nM)
- binding result [6]: no binding (tested: 20 nM)
- binding result [7]: no binding (tested: 20 nM)
- binding result [8]: no binding (tested: 20 nM)
- binding result [9]: no binding (tested: 20 nM)
- binding result [10]: no binding (tested: 20 nM)
- absorbance (A450) [11]: 0.324 A450
- absorbance (A450) [12]: 0.156 A450
- binding result [13]: no binding (tested: 500 nM)
- EC50 [14]: 63 nM

The remaining binders from weak to strong by EC50 [14], led by results:

- binding result [1]: no binding (tested: 20 nM)
- binding result [2]: no binding (tested: 20 nM)
- binding result [3]: no binding (tested: 20 nM)
- binding result [4]: no binding (tested: 20 nM)
- binding result [5]: no binding (tested: 20 nM)
- binding result [6]: no binding (tested: 20 nM)
- binding result [7]: no binding (tested: 20 nM)
- binding result [8]: no binding (tested: 20 nM)
- binding result [9]: no binding (tested: 20 nM)
- binding result [10]: no binding (tested: 20 nM)
- absorbance (A450) [11]: 0.251 A450
- absorbance (A450) [12]: 0.11 A450
- binding result [13]: no binding (tested: 500 nM)
- EC50 [14]: ~100 nM
B2: anti-LRRC25 chimeric antibody 4A03 (antibody, human IgG4, V domains shown)
VH: B1 VH with Q3N, V5E, E6V, N31R, N56S, N73I, N76D, I92M, T96A, P104L
VL: B3 VL with F22S, Y101F, G105S

- binding result [1]: no binding (tested: 20 nM)
- binding result [2]: no binding (tested: 20 nM)
- binding result [3]: no binding (tested: 20 nM)
- binding result [4]: no binding (tested: 20 nM)
- binding result [5]: no binding (tested: 20 nM)
- binding result [6]: no binding (tested: 20 nM)
- binding result [7]: no binding (tested: 20 nM)
- binding result [8]: no binding (tested: 20 nM)
- binding result [9]: no binding (tested: 20 nM)
- binding result [10]: no binding (tested: 20 nM)
- absorbance (A450) [11]: 0.354 A450
- absorbance (A450) [12]: 0.079 A450
- binding result [13]: no binding (tested: 500 nM)
- EC50 [14]: 30.3 nM
B4: anti-LRRC25 chimeric antibody 3C01 (antibody, human IgG4, V domains shown)
VH: B3 VH
VL: DIVMTQDAPSVPVTPGESVSISCRSSKSLLHSNGNTYLYWFLQRPGQSPQLLIYRMSNLASGVPDRFSGSGSGTAFTLRISRVEAEDVGVYYCMQHLEYPFTFGSGTKLEIKR
notes: also called ATCC PTA-126026

Reference: patent US20220363752A1 (VERSEAU THERAPEUTICS, published 2022)
